One block for each binder: values may come before it.
Experiments:
[1] = biological target: recombinant PD-L1 protein (PD-1 ligand), species not stated; assay: ELISA
[2] = biological target: recombinant PD-L1 protein (PD-1 ligand), species not stated; assay: MST

Chain of recombinant PD-L1 protein (PD-1 ligand), species not stated (Q9NZQ7 whole entry): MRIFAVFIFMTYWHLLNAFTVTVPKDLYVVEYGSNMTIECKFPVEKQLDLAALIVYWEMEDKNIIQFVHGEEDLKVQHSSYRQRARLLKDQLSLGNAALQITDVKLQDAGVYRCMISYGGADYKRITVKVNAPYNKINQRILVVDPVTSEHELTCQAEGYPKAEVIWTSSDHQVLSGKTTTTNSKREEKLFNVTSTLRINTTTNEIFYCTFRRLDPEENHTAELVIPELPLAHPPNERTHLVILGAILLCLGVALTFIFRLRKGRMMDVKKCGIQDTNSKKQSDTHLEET

- Kd [1]: 71.2 nM
B1: huHF-αPD-L1 HCDR3 (CD loop), Examples 1-6 (designed binder)
chain: MTTASTSQVRQNYHQDSEAAINRQINLELYASYVYLSMSYYFDRDDVALKNFAKYFLHQSHEEREHAEKLMKLQNQRGGRIFLQDIKKPDCDDWESGLNAMECALHLEKNVNQSLLELHKLATDKNDSGHGYSYGAFDYPHLCDFIETHYLNEQVKAIKELGDHVTNLRKMGAPESGLAEYLFDKHTLGDSDNES

- Kd [2]: 72.1 nM
B2: huHF-TPP1 (AB loop) (designed binder, not shown: small tags and cut ends)
chain: MTTASTSQVRQNYHQDSEAAINRQINLELYASYVYLSMSYYFDRDDSGQYASYHCWCWRDPGRSGGSKVALKNFAKYFLHQSHEEREHAEKLMKLQNQRGGRIFLQDIKKPDCDDWESGLNAMECALHLEKNVNQSLLELHKLATDKNDPHLCDFIETHYLNEQVKAIKELGDHVTNLRKMGAPESGLAEYLFDKHTLGDSDNES

- Kd [2]: 115 nM
B3: huHF-TPP1 (CD loop) (designed binder, not shown: small tags and cut ends)
chain: MTTASTSQVRQNYHQDSEAAINRQINLELYASYVYLSMSYYFDRDDVALKNFAKYFLHQSHEEREHAEKLMKLQNQRGGRIFLQDIKKPDCDDWESGLNAMECALHLEKNVNQSLLELHKLATDKNDSGQYASYHCWCWRDPGRSGGSKPHLCDFIETHYLNEQVKAIKELGDHVTNLRKMGAPESGLAEYLFDKHTLGDSDNES
